Results published in patent US20220281931A1 (published 2022).

B3: SIAH1^SBD (tag-cleaved) (enzyme, human, UniProt Q8IUQ4 90-282, looked up)
chain: VANSVLFPCKYASSGCEITLPHTEKADHEELCEFRPYSCPCPGASCKWQGSLDAVMPHLMHQHKSITTLQGEDIVFLATDINLPGAVDWVMMQSCFGFHFMLVLEKQEKYDGHQQFFAIVQLIGTRKQAENFAYRLELNGHRRRLTWEATPRSIHEGIATAIMNSDCLVFDTSIAQLFAENGNLGINVTISMC
notes: range 90-282; also called recombinant SIAH1^SBD

Columns and labels:
eGFPBCL6^1-250 = target: T1, eGFPBCL6^1-250 (human, UniProt P41182 1-250); assay: co-immunoprecipitation (GFP-trap) from HEK293T cells, BI-3802 or DMSO
T1 construct: Expressed in HEK293T Cas9 cells; also called eGFPBCL6^250; non-degradable eGFPBCL6^1-250 construct; not shown: eGFP
Experimental: (§1) The cells were harvested and lysed in RIPA lysis buffer (ThermoFisher Scientific, #89900) infused with protease inhibitor (ThermoFisher Scientific, Halt™ Protease Inhibitor Cocktail #78438) for 30 min at 4° C. […] Lysates were cleared by centrifugation (17,000 g, 20 min, 4° C.). 20 μL of pre-cleaned GFP-trap magnetic agarose beads (Chromotek, gmta-20) was added to the lysates. The beads-lysate mix was incubated at 4° C. for 30 min. Proteins were eluted in 2×sample buffer at 98° C. Eluates and whole-cell lysates were run on a polyacrylamide gel, transferred to a nitrocellulose membrane and immunoblotted for eGFP and V5.

[1] = target: T2, eGFPBCL6^FL 249-251 VSP>GSA (human, UniProt P41182 1-706); assay: as above
T2 construct: Expressed in HEK293T Cas9 cells; also called BCL6 V×P motif mutant; not shown: eGFP
Experimental: as §1

eGFPBCL6^1-275 = target: T3, eGFPBCL6^1-275 (human, UniProt P41182 1-275); assay: immunofluorescence colocalization in HEK293T cells, 1 µM BI-3802
T3 construct: Expressed in HEK293T Cas9 cells; also called eGFPBCL6^275; minimal degradable construct; not shown: eGFP

[2] = target: T4, BodipyFL-labeled BCL6^5-360 (human, UniProt P41182 5-360, BodipyFL label (site not stated)); assay: TR-FRET, apparent KD; BodipyFL-BCL6^5-360 titrated to biotinylated SIAH1^SBD in the presence of 2 µM BI-3802
T4 construct: also called BodipyBCL6^5-360; BodipyFL-BCL6^5-360
Experimental: Titrations of BodipyFL-BCL6⁵⁻³⁶⁰ were carried out by mixing 400 nM biotinylated Strep II Avi-tagged SIAH1^SBD, 2 μM compounds or equivalent volume of DMSO, and 4 nM terbium-coupled streptavidin in the same assay buffer. After dispensing the assay mixture, increasing concentration of BodipyFL-BCL6⁵⁻³⁶⁰ was added to the SIAH1 mixture in a […] (7.5 μL each, total 15 μL assay volume). The 520/490 nm ratios were measured in as described above and plotted to calculate the KD^APP values using dose-response analysis standard four parameter log-logistic curves using the dr4pl R package.

BCL6^5-360 (ITC) = target: T5, BCL6^5-360 (ITC) (human, UniProt P41182 5-360); assay: isothermal titration calorimetry, SIAH1^SBD injected into BCL6^5-360
T5 construct: also called BCL6^5-360 protein
Experimental: (§2) All calorimetric experiments were carried out using an Affinity ITC from TA Instruments (New Castle, Del.) equipped with auto sampler in a buffer containing 20 mM HEPES, pH 7.5, 150 mM NaCl, and 0.5 mM TCEP at 25° C. For the BCL6-SIAH1 interaction, 25 μM BCL6⁵⁻³⁶⁰ protein solution in the calorimetric cell was titrated by injecting 2 μL of 250 μM SIAH1^SBD protein solution in 200 sec intervals with stirring speed at 125 rpm. […] Resulting isotherm was fitted with a single site model to yield thermodynamic parameters of DH, DS, stoichiometry, and Kd using NanoAnalyze software (TA instruments).

SIAH1^SBD (tag-cleaved) = target: B3; assay: isothermal titration calorimetry, peptide injected into SIAH1^SBD
Experimental: as §2

B1: V5SIAH1^C44S (enzyme, UniProt Q8IUQ4 1-282, looked up)
chain: MSRQTATALPTGTSKCPPSQRVPALTGTTASNNDLASLFECPVSFDYVLPPILQCQSGHLVCSNCRPKLTCCPTCRGPLGSIRNLAMEKVANSVLFPCKYASSGCEITLPHTEKADHEELCEFRPYSCPCPGASCKWQGSLDAVMPHLMHQHKSITTLQGEDIVFLATDINLPGAVDWVMMQSCFGFHFMLVLEKQEKYDGHQQFFAIVQLIGTRKQAENFAYRLELNGHRRRLTWEATPRSIHEGIATAIMNSDCLVFDTSIAQLFAENGNLGINVTISMC
notes: Expressed from pLEX_307 in HEK293T Cas9 cells; also called V5SIAH1^44C>S; V5SIAH1^44>S; not shown: V5 tag
binding result (eGFPBCL6^1-250): no binding | binding result [1]: no binding | binding result (eGFPBCL6^1-275): binds

B2: biotinylated Strep II Avi-tagged SIAH1^SBD (enzyme, human, UniProt Q8IUQ4 90-282, looked up)
chain: VANSVLFPCKYASSGCEITLPHTEKADHEELCEFRPYSCPCPGASCKWQGSLDAVMPHLMHQHKSITTLQGEDIVFLATDINLPGAVDWVMMQSCFGFHFMLVLEKQEKYDGHQQFFAIVQLIGTRKQAENFAYRLELNGHRRRLTWEATPRSIHEGIATAIMNSDCLVFDTSIAQLFAENGNLGINVTISMC
modifications: biotinylated (Avi tag)
notes: range 90-282; Captured through terbium-coupled streptavidin in TR-FRET; also called BiotinSIAH1^SBD; not shown: N-terminal Strep II-Avi tag
Kd [2]: 200 nM

B3
binding result (BCL6^5-360 (ITC)): binds

EYSRPTLEVSPNVCHSNIYS (also called V×P-containing polypeptide) [BCL6^241-260 peptide]
binding result (SIAH1^SBD (tag-cleaved)): binds
